Measured values taken from US20260184782A1 (TWIST BIOSCIENCE, published 2026).

T1: human TIGIT-Fc (human, UniProt Q495A1 22-141, limits assumed)
T1 construct: not shown: Fc; not described
T1 sequence (looked up): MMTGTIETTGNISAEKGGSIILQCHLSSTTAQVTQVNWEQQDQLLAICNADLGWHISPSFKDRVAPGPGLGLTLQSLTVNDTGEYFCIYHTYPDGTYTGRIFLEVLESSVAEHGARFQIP

T2: TIGIT on PBMCs (UniProt Q495A1 22-244, limits assumed)
T2 sequence (looked up): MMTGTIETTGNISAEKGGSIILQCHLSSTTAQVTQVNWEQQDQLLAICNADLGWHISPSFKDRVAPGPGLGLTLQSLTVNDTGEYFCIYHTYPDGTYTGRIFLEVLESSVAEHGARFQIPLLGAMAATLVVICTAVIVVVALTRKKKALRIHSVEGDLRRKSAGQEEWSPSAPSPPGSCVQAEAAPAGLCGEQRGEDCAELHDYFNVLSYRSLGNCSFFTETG

T3: TIGIT (UniProt Q495A1 22-141, limits assumed)
T3 construct: construct not described; also called T cell immunoreceptor with Ig and ITIM domains
T3 sequence (looked up): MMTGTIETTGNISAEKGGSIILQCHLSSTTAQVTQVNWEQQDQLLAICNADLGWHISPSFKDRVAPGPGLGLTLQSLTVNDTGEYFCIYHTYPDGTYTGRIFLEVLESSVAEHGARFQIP

T4: TIGIT (T cell immunoreceptor with Ig and ITIM domains) (UniProt Q495A1 22-141, limits assumed)
T4 sequence (looked up): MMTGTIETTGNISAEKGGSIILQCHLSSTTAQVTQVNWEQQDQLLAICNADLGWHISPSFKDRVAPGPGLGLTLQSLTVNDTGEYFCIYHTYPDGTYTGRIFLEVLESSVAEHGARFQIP


Tests used:
human TIGIT-Fc [1] = target: T1, human TIGIT-Fc; test: CD155 competition ELISA, single point
Protocol: (§1) TIGIT/CD155 inhibition of VHH-Fcs were assessed using an ELISA assay (Table 10B). Briefly, human TIGIT-Fc was coated on a plate & then incubated with VHH-Fcs and human CD155-biotin. Bound CD155-biotin was detected using a streptavidin-HRP conjugate visualized with TMB. Strong inhibitors from the single point screen were titrated to determine EC50 (Table 10C).

human TIGIT-Fc [2] = target: T1, human TIGIT-Fc; test: CD155 competition ELISA, titration
Protocol: as §1

TIGIT on PBMCs = target: T2, TIGIT on PBMCs; test: cell-based or functional assay
TIGIT = target: T3, TIGIT; test: Carterra SPR, VHH-Fc
[3] = target: T4, TIGIT (T cell immunoreceptor with Ig …); test: SPR (Carterra), VHH-Fc
Description: The Carterra SPR system was used to assess binding affinity and affinity distribution for VHH-Fc variants. […] Table 5A provides specific values for the VHH-Fc clones for ELISA, Protein A (mg/ml), and KD (nM). FIG. 7A and FIG. 7B depict TIGIT affinity distribution for the VHH libraries, over the 20-4000 affinity threshold (FIG. 7A; monovalent KD) and the 20-1000 affinity threshold (FIG. 7B; monovalent KD).

[4] = target: T4, TIGIT (T cell immunoreceptor with Ig …); test: ELISA, VHH-Fc clone on TIGIT

OD (450 nm) (human TIGIT-Fc [1]) [OD] | EC50 (human TIGIT-Fc [2]) [nM] | T-cell activation EC50 (TIGIT on PBMCs) [nM] | Kd (TIGIT) [nM] | kon (TIGIT) [M⁻¹ s⁻¹] | Kd [3] [nM] | ELISA [4] | Binder
0.0781 | 0.423 | 7.53 | – | – | – | – | TIGIT-SC24 (Fc fusion, VHH-Fc) VHH: EVQLVESGGGLVQPGGSLRLSCAASGFTFDRSWMGWFRQAPGKEREVVASITSGGSTYYADSVKGRFTISADNSKNTAYLQMNSLKPEDTAVYYCAADVWYGSTWRNWGQGTLVTVSS
0.0781 | 135 | 88.1 | – | – | – | – | TIGIT-SC63 (Fc fusion, VHH-Fc) VHH: EVQLVESGGGLVQPGGSLRLSCAASGRAIGSYGMGWFRQAPGKEREFVATISVSGVYTYYADSVKGRFTISADNSKNTAYLQMNSLKPEDTAVYYCARATPGGVVPWGQGTLVTVSS
0.0858 | 0.57 | 13.5 | – | – | – | – | Tiragolumab (antibody, V domains shown) VH: EVQLQQSGPGLVKPSQTLSLTCAISGDSVSSNSAAWNWIRQSPSRGLEWLGKTYYRFKWYSDYAVSVKGRITINPDTSKNQFSLQLNSVTPEDTAVFYCTRESTTYDLLAGPFDYWGQGTLVTVSS VL: not shown
0.111 | 0.971 | 7.11 | – | – | – | – | TIGIT-SC97 (Fc fusion, VHH-Fc) VHH: EVQLVESGGGLVQPGGSLRLSCAASGTAASFNPMGWFRQAPGKEREFVAAISWSGGSTNYADSVKGRFTISADNSKNTAYLQMNSLKPEDTAVYYCVTYSAYDFRNAWGQGTLVTVSS
0.0921 | 10 | 1.83 | – | – | – | – | TIGIT-SC41 (Fc fusion, VHH-Fc) VHH: EVQLVESGGGLVQPGGSLRLSCAASGMTTIGPMGWFRQAPGKEREFVASIAWGDGNTYYADSVKGRFTISADNSKNTAYLQMNSLKPEDTAVYYCVRGGSRTLWGQGTLVTVSS
– | – | – | 68 | 1e+09 | – | – | TIGIT-29-01 VHH-Fc (Fc fusion, also called 29-1) EVQLVESGGGLVQAGGSLRLSCAASGRTFSNYAMGWFRQAPGKEREFVAAITWSGTRTDYADSVKGRFTISADNAKNTVYLQMNSLKPEDTAVYYCAAAAWTIYEYDYWGQGTQVTVSSGGGGSEPKSSDKTHTCPPCPAPELLGGPSVFLFPPKPKDTLMISRTPEVTCVVVDVSHEDPEVKFNWYVDGVEVHNAKTKPREEQYNSTYRVVSVLTVLHQDWLNGKEYKCKVSNKALPAPIEKTISKAKGQPREPQVYTLPPSREEMTKNQVSLTCLVKGFYPSDIAVEWESNGQPENNYKTTPPVLDSDGSFFLYSLTVDKSRWQQGNVFSCSVMHEALHNHYTQKSLSLSPG
– | – | – | – | – | 68 | 10.4 | TIGIT-29-01 (Fc fusion, VHH-Fc; also called 29-1) EVQLVESGGGLVQAGGSLRLSCAASGRTFSNYAMGWFRQAPGKEREFVAAITWSGTRTDYADSVKGRFTISADNAKNTVYLQMNSLKPEDTAVYYCAAAAWTIYEYDYWGQGTQVTVSSGGGGSEPKSSDKTHTCPPCPAPELLGGPSVFLFPPKPKDTLMISRTPEVTCVVVDVSHEDPEVKFNWYVDGVEVHNAKTKPREEQYNSTYRVVSVLTVLHQDWLNGKEYKCKVSNKALPAPIEKTISKAKGQPREPQVYTLPPSREEMTKNQVSLTCLVKGFYPSDIAVEWESNGQPENNYKTTPPVLDSDGSFFLYSLTVDKSRWQQGNVFSCSVMHEALHNHYTQKSLSLSPG
0.0846 | 0.303 | 2.08 | – | – | – | – | TIGIT-SC58 (Fc fusion, VHH-Fc) VHH: EVQLVESGGGLVQPGGSLRLSCAASGFTLGYYVMGWFRQAPGKEREFVATINWSGTLTSYADSVKGRFTISADNSKNTAYLQMNSLKPEDTAVYYCARWVGPKYYFDYWGQGTLVTVSS
